# Results published in patent publication US9315825B2, “Pharmacologically induced transgene ablation system” (The Trustees of the University of Pennsylvania, priority 2010, dated 2016).
# Test system: pCMV.Luciferase reporter gene expression in HEK293 cells
# Test: Ablation of luciferase reporter by FokI ablators co-transfected into HEK293 cells (Dual Luciferase assay)
# Format: cell-based, human
# Conditions: for ablation of Luc reporter with increasing concentration of ablator expression plasmid: 6.25, 12.5, 25, 50 and 100 ng expression plasmid cotransfected with 50 ng pCMV.Luciferase; for expression of the luciferase reporter gene: FIG. 18A: 50 ng pCMV.Luciferase + 200 ng pCMV.FokI, or + transfected FokI protein
# Description: Open reading frames encoding for various endonucleases were codon optimized and de novo synthesized by GeneArt. Ablator expression and target plasmids were produced using standard molecular biological cloning techniques. Transfections were performed in HEK293 cells using Lipofectamine™ 2000 transfection reagent (Life Technologies). All transfections were performed using optimal transfection conditions as defined in transfection reagent protocol. Briefly, 200-250 ng plasmid DNA (excluding transfection control plasmid) was complexed with Lipofectamine™ 2000 transfection reagent and added to cells in 96 well plates. DNA quantities were consistent across all conditions by supplementation with an unrelated plasmid containing the same promoter as test plasmids. Transfection complexes were incubated with cells for 4-6 hours as transfection reagent protocol before the addition of FBS supplemented media. Transfected cells were incubated at 37° C. for 24-72 hours. Following incubation, cells were assayed for reporter gene expression using Promega Dual Luciferase detection kit according to the manufacturer's instructions on a BioTek Clarity platereader and renilla luciferase was used to control for transfection efficiency. All samples were performed in quadruplicate and standard errors of the mean were calculated.
# The amino acid sequence of the FokI enzyme is provided in SEQ ID NO: 12, wherein amino acids 1 to 387 are the DNA binding domain and amino acids 387 to 584 are the catalytic domain. The codon optimized FokI sequence is provided in SEQ ID NO:1.
# In a dose-dependent experiment, the FokI expression vector contained the FokI catalytic domain fused to a zinc finger DNA binding domain (ZFHD). This construct, which is 963 bp, is provided in SEQ ID NO: 21 and is composed of base pairs 1 to 366 bp ZFHD, 367 to 372 bp linker, and 373 to 963 bp FokI catalytic domain. The resulting expression product comprises amino acids 1 to 122 (ZFHD), amino acids 123-124 are a linker and amino acids 125 to 321 are from the FokI catalytic domain. […] No ablation sites were required to be engineered into the transcription unit containing the transgene in this illustration, as luciferase contains multiple native FokI sites.
# The plasmid contructs in this example contains either the FokI catalytic domain (198 amino acids (SEQ ID NO: 14), corresponding to amino acids 387 to 584 of the full-length protein) (untethered FokI) or a ZFHD-Fokl catalytic domain of 963 bp as described in Part A above (tethered FokI). Even at the highest concentration, the catalytic domain of FokI which is un-tethered to DNA does have no effect on expression of Luc reporter gene (FIG. 19A).
# The HTH-FokI Catalytic domain (SEQ ID NO:5), is composed of 1-171 bp HTH from Gin (a serine recombinase), a linker (bp 172-177), and a FokI catalytic domain (178-768 bp) derived from codon-optimized FokI. The resulting chimeric enzyme (SEQ ID NO: 6) contains aa 1-57 of HTH from Gin, a linker (aa 58-59), and a FokI catalytic domain (amino acids 60-256).
Molecule,ablation of Luc reporter with increasing concentration of ablator expression plasmid,expression of the luciferase reporter gene,further results
"ZFHD-FokI: FokI catalytic domain fused to a zinc finger homeodomain DNA binding domain (ZFHD), 963 bp, SEQ ID NO: 21",dose dependent ablation,,ablation of Luc reporter with increasing concentration of ablator expression plasmid (listed as ZF-HD-FokI): effectively ablated
"NLS-HTH-FokI: HTH-FokI fusion which further has a heterologous NLS at its N-terminus (protein, modified enzyme from SV40, Gin and FokI, HTH-FokI fusion which further has a heterologous NLS at its N-terminus) MPKKKRKVGRPPRLTKAEWEQAGRLLAQGIPRKQVALIYDVALSTLYKKHPAKRAHIENDDRINGTKQLVKSELEEKKSELRHKLKYVPHEYIELIEIARNPTQDRILEMKVMEFFMKVYGYRGEHLGGSRKPDGAIYTVGSPIDYGVIVDTKAYSGGYNLPIGQADEMQRYVEENQTRNKHINPNEWWKVYPSSVTEFKFLFVSGHFKGNYKAQLTRLNHITNCNGAVLSVEELLIGGEMIKAGTLTLEEVRRKFNNGEINF",,,"activity of HTH-FokI after adding heterologous NLS at the N-terminus (6.25-100 ng expression plasmid with 50 ng pCMV.Luciferase, separate experiment): further improved"
"untethered FokI: FokI catalytic domain alone, 198 amino acids (SEQ ID NO: 14), un-tethered to DNA (protein) MKQLVKSELEEKKSELRHKLKYVPHEYIELIEIARNPTQDRILEMKVMEFFMKVYGYRGEHLGGSRKPDGAIYTVGSPIDYGVIVDTKAYSGGYNLPIGQADEMQRYVEENQTRNKHINPNEWWKVYPSSVTEFKFLFVSGHFKGNYKAQLTRLNHITNCNGAVLSVEELLIGGEMIKAGTLTLEEVRRKFNNGEINF",no effect,,
"FokI protein: FokI protein delivered (transfected) to the cells (protein, UniProt P14870 2-579, looked up) Type II restriction enzyme …: VSKIRTFGWVQNPGKFENLKRVVQVFDRNSKVHNEVKNIKIPTLVKESKIQKELVAIMNQHDLIYTYKELVGTGTSIRSEAPCDAIIQATIADQGNKKGYIDNWSSDGFLRWAHALGFIEYINKSDSFVITDVGLAYSKSADGSAIEKEILIEAISSYPPAIRILTLLEDGQHLTKFDLGKNLGFSGESGFTSLPEGILLDTLANAMPKDKGEIRNNWEGSSDKYARMIGGWLDKLGLVKQGKKEFIIPTLGKPDNKEFISHAFKITGEGLKVLRRAKGSTKFTRVPKRVYWEMLATNLTDKEYVRTRRALILEILIKAGSLKIEQIQDNLKKLGFDEVIETIENDIKGLINTGIFIEIKGRFYQLKDHILQFVIPNRGVTKQLVKSELEEKKSELRHKLKYVPHEYIELIEIARNSTQDRILEMKVMEFFMKVYGYRGKHLGGSRKPDGAIYTVGSPIDYGVIVDTKAYSGGYNLPIGQADEMQRYVEENQTRNKHINPNEWWKVYPSSVTEFKFLFVSGHFKGNYKAQLTRLNHITNCNGAVLSVEELLIGGEMIKAGTLTLEEVRRKFNNGEINF",,partial ablation,
"HTH-FokI: HTH from Gin (a serine recombinase), a linker and FokI catalytic domain, SEQ ID NO: 6 (protein) MGRPPRLTKAEWEQAGRLLAQGIPRKQVALIYDVALSTLYKKHPAKRAHIENDDRINGTKQLVKSELEEKKSELRHKLKYVPHEYIELIEIARNPTQDRILEMKVMEFFMKVYGYRGEHLGGSRKPDGAIYTVGSPIDYGVIVDTKAYSGGYNLPIGQADEMQRYVEENQTRNKHINPNEWWKVYPSSVTEFKFLFVSGHFKGNYKAQLTRLNHITNCNGAVLSVEELLIGGEMIKAGTLTLEEVRRKFNNGEINF",effectively ablated,,
wild-type FokI: full-length FokI enzyme (SEQ ID NO: 12) expressed from a cotransfected codon optimized plasmid (protein) MFLSMVSKIRTFGWVQNPGKFENLKRVVQVFDRNSKVHNEVKNIKIPTLVKESKIQKELVAIMNQHDLIYTYKELVGTGTSIRSEAPCDAIIQATIADQGNKKGYIDNWSSDGFLRWAHALGFIEYINKSDSFVITDVGLAYSKSADGSAIEKEILIEAISSYPPAIRILTLLEDGQHLTKFDLGKNLGFSGESGFTSLPEGILLDTLANAMPKDKGEIRNNWEGSSDKYARMIGGWLDKLGLVKQGKKEFIIPTLGKPDNKEFISHAFKITGEGLKVLRRAKGSTKFTRVPKRVYWEMLATNLTDKEYVRTRRALILEILIKAGSLKIEQIQDNLKKLGFDEVIETIENDIKGLINTGIFIEIKGRFYQLKDHILQFVIPNRGVGTKQLVKSELEEKKSELRHKLKYVPHEYIELIEIARNPTQDRILEMKVMEFFMKVYGYRGEHLGGSRKPDGAIYTVGSPIDYGVIVDTKAYSGGYNLPIGQADEMQRYVEENQTRNKHINPNEWWKVYPSSVTEFKFLFVSGHFKGNYKAQLTRLNHITNCNGAVLSVEELLIGGEMIKAGTLTLEEVRRKFNNGEINF,,effective ablated,
